# Substitutions are numbered along the chain they refer to.
# B1: P01_C05 scFv-Fc fusion (scFv, V domains shown)
# VH: QVQLVESGGGLVQAGGSLRLSCAASRRSSRSWAMHWVRQAPGKGLEWVAVISYDGRLKYYADSVKGRFTISRDNAEYLVYLQMNSLRAEDTAVYYCAAEQWGTNDGPDGGMDYWGQGTLVTVSS
# VL: DIQMTQSPSSLSASVGDRVTITCRASQTIGSHLNWYQQKPGKAPKLLIYGTSNLQSGVPSRFSGSGSGTDFTLTISSLQPEDFATYYCQQSYSSPLTFGQGTKVEIK
# notes: Tested as scFv-Fc fusion
# B2: P02_C02 scFv-Fc fusion (scFv, V domains shown)
# VH: QVQLVESGGGLVQAGGSLRLSCAASRRSSRSWAMHWVRQAPGKGLEWVAVISYDGRLKYYADSVKGRFTISRDNAEYLVYLQMNSLRAEDTAVYYCAAEGGMGLDPWGQGTLVTVSS
# VL: DIQMTQSPSSLSASVGDRVTITCRASQTISSYLNWYQQKPGKAPKLLIYAASNLHSGVPSRFSGSGSGTDFTLTISSLQPEDFATYYCQQSYSSGTFGQGTKVEIK
# notes: Tested as scFv-Fc fusion
# B3: P01_B02 scFv-Fc fusion (scFv, V domains shown)
# VH: QVQLVESGGGLVQAGGSLRLSCAASRRSSRSWAMHWVRQAPGKGLEWVAVISYDGRLKYYADSVKGRFTISRDNAEYLVYLQMNSLRAEDTAVYYCAAADWYSGGGDALDIWGQGTLVTVSS
# VL: B2 VL with S30Y, S31N, A50G, H55Q, S91T, G95P
# notes: Tested as scFv-Fc fusion
# B4: P14_E03 scFv-Fc fusion (scFv, V domains shown)
# VH: QVQLVESGGGLVQAGGSLRLSCAASRRSSRSWAMHWVRQAPGKGLEWVAVISYDGRLKYYADSVKGRFTISRDNAEYLVYLQMNSLRAEDTAVYYCAAAPRVDWSDVSSGIDYWGQGTLVTVSS
# VL: QSVLTQPPSASGTPGQRVTISCSGSISNIGTNNVYWYQQLPGTAPKLLIYRNNQRPSGVPDRFSGSKSGTSASLAISGLRSEDEADYYCSAWDDSLSGVVFGTGTKLTVL
# notes: Tested as scFv-Fc fusion
# B5: P15_F02 scFv-Fc fusion (scFv, V domains shown)
# VH: QVQLVESGGGLVQAGGSLRLSCAASRRSSRSWAMHWVRQAPGKGLEWVAVISYDGRLKYYADSVKGRFTISRDNAEYLVYLQMNSLRAEDTAVYYCAAARDVDGSGYDTIDVWGQGTLVTVSS
# VL: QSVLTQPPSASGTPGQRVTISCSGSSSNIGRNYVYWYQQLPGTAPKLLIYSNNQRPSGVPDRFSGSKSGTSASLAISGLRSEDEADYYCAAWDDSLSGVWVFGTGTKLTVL
# notes: Tested as scFv-Fc fusion
# B6: P08_D06 scFv-Fc fusion (scFv, V domains shown)
# VH: QVQLVESGGGLVQAGGSLRLSCAASRRSSRSWAMHWVRQAPGKGLEWVAVISYDGRLKYYADSVKGRFTISRDNAEYLVYLQMNSLRAEDTAVYYCAADDDGDVYAGYSYGGFDYWGQGTLVTVSS
# VL: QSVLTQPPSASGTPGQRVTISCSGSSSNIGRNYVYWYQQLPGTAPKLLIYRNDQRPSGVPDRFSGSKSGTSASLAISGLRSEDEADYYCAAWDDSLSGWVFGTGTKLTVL
# notes: Tested as scFv-Fc fusion
# B7: P01_H04 scFv-Fc fusion (scFv, V domains shown)
# VH: B5 VH with A99D, R100M, V102D, D103M, G104L, G106Y, D108N, T109S, I110F, V112I
# VL: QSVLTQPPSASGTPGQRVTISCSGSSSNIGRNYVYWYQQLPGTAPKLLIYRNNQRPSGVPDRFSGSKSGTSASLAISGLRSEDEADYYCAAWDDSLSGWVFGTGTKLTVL
# notes: Tested as scFv-Fc fusion
# B8: P07_H08 scFv-Fc fusion (scFv, V domains shown)
# VH: QVQLVESGGGLVQAGGSLRLSCAASRRSSRSWAMHWVRQAPGKGLEWVAVISYDGRLKYYADSVKGRFTISRDNAEYLVYLQMNSLRAEDTAVYYCAAGFDWGWDSSDIYSAMDYWGQGTLVTVSS
# VL: B1 VL with T28N, S31R, H32Y, N34H, G50S, T51A, L96F
# notes: Tested as scFv-Fc fusion
# B9: P01_F02 scFv-Fc fusion (scFv, V domains shown)
# VH: QVQLVESGGGLVQAGGSLRLSCAASRRSSRSWAMHWVRQAPGKGLEWVAVISYDGRLKYYADSVKGRFTISRDNAEYLVYLQMNSLRAEDTAVYYCAADVESALAYGEPYHHMDVWGQGTLVTVSS
# VL: B4 VL with I26S, T31R, N33Y, N52T, N53S, S90A, A91T, V99W
# notes: Tested as scFv-Fc fusion
# B10: P04_C09 scFv-Fc fusion (scFv, V domains shown)
# VH: QVQLVESGGGLVQAGGSLRLSCAASRRSSRSWAMHWVRQAPGKGLEWVAVISYDGRLKYYADSVKGRFTISRDNAEYLVYLQMNSLRAEDTAVYYCAAEANESDSGGIDVWGQGTLVTVSS
# VL: B2 VL with S30G, S31G, N53S, H55Q, S91G, T96A
# notes: Tested as scFv-Fc fusion
# B11: P07_C04 scFv-Fc fusion (scFv, V domains shown)
# VH: B3 VH with A99E, D100P, W101D, Y102G, S103E, G105T, G106N, D107G, A108G
# VL: B2 VL with T28N, S31R, A50S, N53S, H55Q, S56T, T96A
# notes: Tested as scFv-Fc fusion
# B12: P08_C08 scFv-Fc fusion (scFv, V domains shown)
# VH: B5 VH with A99E, R100G, D101S, V102G, D103S, G104T, S105D, Y107S, D108G, T109A
# VL: B2 VL with T28S, S30G, N53S, H55Q, T96S
# notes: Tested as scFv-Fc fusion
# B13: P16_E06 scFv-Fc fusion (scFv, V domains shown)
# VH: B1 VH with Q100G, W101G, G102D, T103Y, N104P, D105G, G106T, P107S, M111L, Y113I
# VL: B2 VL with T28S, S31N, A50G, N53S, H55Q, S94A
# notes: Tested as scFv-Fc fusion
# B14: P04_C05 scFv-Fc fusion (scFv, V domains shown)
# VH: QVQLVESGGGLVQAGGSLRLSCAASRRSSRSWAMHWVRQAPGKGLEWVAVISYDGRLKYYADSVKGRFTISRDNAEYLVYLQMNSLRAEDTAVYYCAAGLPWTDYWGQGTLVTVSS
# VL: QSVLTQPPSASGTPGQRVTISCSGSNSNIGSNYVSWYQQLPGTAPKLLIYSNNQRPSGVPDRFSGSKSGTSASLAISGLRSEDEADYYCAAWDDRLSVVFGTGTKLTVL
# notes: Tested as scFv-Fc fusion
# Experiments:
# [1] = molecular target: T1, human CD33 antigen (human, UniProt P20138 18-259, limits assumed); test: SPR (Biacore T200), 37 C, scFv-Fc, 0 uM MTX
# T1 construct: whole entry named; also called Siglec-3
# Method: (§1) All binding kinetics analysis was performed on label-free Biacore surface plasmon biosensors (Biacore T200™ from GE Life Sciences) at 37° C. in 10 mM Hepes pH 7.4, 150 mM NaCl, 0.05% Tween-20 (HBST+), with or without 10 µM MTX. The Biacore data were processed in Biacore T200 Evaluation Software, and the data were double-referenced (Myszka, 1999, J Mol Recognit 12(5):279-284) and fit globally to a simple Langmuir with mass transport model to determine the equilibrium dissociation constant, KD, from the ratio of the kinetic rate constants (KD = koff/kₒₙ). In some cases the binding of antigen was very low (or not detectable) in the presence of 10 µM MTX and as a result kinetic rate constants could not be accurately determined. In these cases, a KD (or KD limit) was estimated based on the binding response at the highest analyte concentration tested or based on the typical limit of detection for a Biacore T200.
# [2] = molecular target: T1, human CD33 antigen; test: SPR (Biacore T200), 37 C, scFv-Fc, 10 uM MTX
# Method: as §1
# (§2) “*”: For interactions where kₒₙ and koff are reported, the KD was calculated using koff/kₒₙ.
# [3] = molecular target: T1, human CD33 antigen; test: SPR (Biacore T200), 37 C; KD at 10 uM MTX / KD at 0 uM MTX
# Method: as §1
# [4] = molecular target: T2, human epidermal growth factor receptor antigen (human, UniProt P00533 25-645, limits assumed); test: SPR (Biacore T200), 37 C, scFv-Fc, 0 uM MTX
# T2 construct: whole entry named; also called EGFR
# Method: as §1
# (§3) The first 4 rounds of panning used biotinylated EGFR antigen captured on streptavidin or neutravidin coated 96-well plates. […] 1536 clones were randomly chosen from the 4th and 5th round of panning against the EGFR antigen and their binding specificity determined by phage ELISA.
# [5] = molecular target: T2, human epidermal growth factor receptor …; test: SPR (Biacore T200), 37 C, scFv-Fc, 10 uM MTX
# Method: as §1, §3, §2
# [6] = molecular target: T2, human epidermal growth factor receptor …; test: SPR (Biacore T200), 37 C; KD at 10 uM MTX / KD at 0 uM MTX
# Method: as §1, §3
# T1 sequence (P20138 18-259 limits assumed): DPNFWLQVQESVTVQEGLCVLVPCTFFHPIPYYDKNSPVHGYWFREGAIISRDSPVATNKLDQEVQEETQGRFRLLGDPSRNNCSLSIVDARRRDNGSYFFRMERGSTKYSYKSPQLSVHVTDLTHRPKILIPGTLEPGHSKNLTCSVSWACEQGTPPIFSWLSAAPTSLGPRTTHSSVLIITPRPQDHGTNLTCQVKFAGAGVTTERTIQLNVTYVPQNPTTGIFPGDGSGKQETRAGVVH
Binder,Kd [1],koff [1],kon [1],Kd [2],koff [2],kon [2],Ratio: KD with MTX / KD without MTX [3],Kd [4],koff [4],kon [4],Kd [5],koff [5],kon [5],Ratio: KD with MTX / KD without MTX [6]
B1,86 nM,0.0066 s⁻¹,76000 M⁻¹ s⁻¹,44.7 nM,0.0045 s⁻¹,100000 M⁻¹ s⁻¹,0.5,,,,,,,
B2,213 nM,0.02 s⁻¹,92000 M⁻¹ s⁻¹,221 nM,0.025 s⁻¹,110000 M⁻¹ s⁻¹,1,,,,,,,
B3,19 nM,0.0026 s⁻¹,140000 M⁻¹ s⁻¹,1.6 nM,0.0006 s⁻¹,390000 M⁻¹ s⁻¹,0.1,,,,,,,
B4,,,,,,,,6.3 nM,0.00067 s⁻¹,110000 M⁻¹ s⁻¹,25 nM,0.00072 s⁻¹,29000 M⁻¹ s⁻¹,3.9
B5,,,,,,,,266 nM,0.022 s⁻¹,82000 M⁻¹ s⁻¹,2530 nM,0.13 s⁻¹,50000 M⁻¹ s⁻¹,9.5
B6,,,,,,,,185 nM,0.013 s⁻¹,71000 M⁻¹ s⁻¹,1390 nM,0.033 s⁻¹,24000 M⁻¹ s⁻¹,7.5
B7,,,,,,,,889 nM,0.076 s⁻¹,85000 M⁻¹ s⁻¹,,,,> 2
B8,,,,,,,,823 nM,0.27 s⁻¹,330000 M⁻¹ s⁻¹,,,,> 11
B9,,,,,,,,188 nM,0.011 s⁻¹,61000 M⁻¹ s⁻¹,,,,> 50
B10,12 nM,0.0018 s⁻¹,160000 M⁻¹ s⁻¹,205 nM,0.0089 s⁻¹,44000 M⁻¹ s⁻¹,17.7,,,,,,,
B11,31 nM,0.0029 s⁻¹,95000 M⁻¹ s⁻¹,144 nM,0.025 s⁻¹,170000 M⁻¹ s⁻¹,4.7,,,,,,,
B12,72 nM,0.0045 s⁻¹,63000 M⁻¹ s⁻¹,547 nM,0.051 s⁻¹,94000 M⁻¹ s⁻¹,7.6,,,,,,,
B13,92 nM,0.011 s⁻¹,120000 M⁻¹ s⁻¹,1170 nM,0.087 s⁻¹,75000 M⁻¹ s⁻¹,12.7,,,,,,,
B14,25 nM,0.0021 s⁻¹,83000 M⁻¹ s⁻¹,298 nM,0.013 s⁻¹,45000 M⁻¹ s⁻¹,12,,,,,,,

# Source: US20230192839A1 (published 2023)
